Measurements reported in patent US20220098591, “STEM-LOOP COMPOSITIONS AND METHODS FOR INHIBITING VASCULAR ENDOTHELIAL GROWTN FACTOR” (DRIVE THERAPEUTICS LLC, published 2022).

Key:
VEGF-A121 [1] = target: T1, VEGF-A121 (Homo sapiens, UniProt P15692 SEQ:1-121); assay: competition; TR-FRET; settings: tags: glycan-biotinylated for SPR/FRET/AlphaLISA; Acro BioSystems, Biolegend; chain copies: 2 (stated)
Experimental: (§1) Briefly, for competition TR-FRET, 2-fold dilutions of thermally equilibrated aptamers were made in TR-FRET Buffer (50 mM MOPS, pH 7.4, 125 mM NaCl, 5 mM KCl, 50 μM CHAPS, 0.1 mg/mL BSA, 1 mM CaCl₂, and 1 mM MgCl₂). 5 μL of aptamer or control solution was added to a 15 μL mix of glycan biotinylated […] (5 nM final), ALEXA FLUOR® 647-labeled Aptamer (30 nM final), and Streptavidin-Eu (Perkin Elmer; 2.5 nM final) in a black wall low volume 384 well plate (Greiner). For control, 5 μl of 1000-fold excess of unlabeled parent aptamer or 5 μl TR-FRET buffer alone was added to the mix of ALEXA FLUOR® 647-labeled aptamer, biotin-VEGF-A, and Streptavidin-Eu. The plate was covered with a plate seal and subsequently incubated in the dark for 1 hour at room temperature. The plate was read on a Biotek CYTATION™ 5 plate reader. Samples were excited at 330 nm and fluorescent values were collected at 665 nm. Data analysis was performed by subtracting the background value and plotting as percent inhibition, normalized to baseline in the absence of competitor. The values were fit by [Inhibitor] vs. response-Variable slope (four parameters) using GraphPad Prism Version 7.0 and then normalized to aptamer control to obtain an IC₅₀ relative to parent aptamer. Data is presented as log values of relative IC₅₀.

VEGF-A121 [2] = target: T1, VEGF-A121; assay: competition; TR-FRET; stem S3 mispaired; settings: tags: glycan-biotinylated for SPR/FRET/AlphaLISA; Acro BioSystems, Biolegend; chain copies: 2 (stated)
Experimental: as §1, with “IC₅₀. […]” for “IC₅₀.”

VEGF-A165 [3] = target: T2, VEGF-A165 (Homo sapiens); assay: SPR; HBD-binding aptamer; settings: tags: glycan-biotinylated for SPR/FRET/AlphaLISA; Acro BioSystems, R&D Systems; chain copies: 2 (inferred)
T2 chain: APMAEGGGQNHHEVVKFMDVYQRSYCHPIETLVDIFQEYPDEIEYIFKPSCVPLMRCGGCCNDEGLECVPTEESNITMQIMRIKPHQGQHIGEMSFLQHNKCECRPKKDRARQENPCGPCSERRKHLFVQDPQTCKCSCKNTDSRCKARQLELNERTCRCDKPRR
Experimental: (§2) Aptamer 26 was identical in sequence to Aptamer 4.2 but contained a hexylamine linker in place of the C6 disulfide linker at the 5′ terminus. […] Briefly, in the SPR studies, 1.0-2.5 μg/mL of glycan biotinylated VEGF-A₁₆₅, VEGF-A₁₂₁, and VEGF-A₁₁₀ were diluted in HEPES running buffer (10 mM HEPES, 137.5 mM NaCl, 5.7 mM KCl, 1 mM MgCl₂, 1 mM CaCl₂, and 0.05% Tween20; pH 7.4) and immobilized to a streptavidin dextran chip (GE Healthcare Life Sciences) for 1-2 minutes. The chip was then blocked with 0.2 mg/mL biotin in running buffer, followed by 3 cycles of buffer blanks and regenerated with 50 mM NaOH to equilibrate the chip. […] After coating and blocking, samples were screened at 100 nM in duplicate injections at a flow rate of 25 μL/min, with an association time of 3 minutes 20 seconds and a dissociation time of 10 minutes. Regeneration conditions of chips were optimized based on the protein immobilized and effected with either 50 mM NaOH for 30 seconds or 2M guanidine HCl for 2×40 seconds.
(§3) Data was fit to a 1:1 kinetic binding model.

VEGF-A165 [4] = target: T2, VEGF-A165; assay: cell_activity; partial (~80%) inhibition of KDR phosphorylation; no inhibition of KDR binding in AlphaLISA; settings: tags: glycan-biotinylated for SPR/FRET/AlphaLISA; Acro BioSystems, R&D Systems; chain copies: 2 (inferred)
Experimental: Briefly, HEK293 cells engineered to stably overexpress KDR were plated overnight in collagen coated 96 well plates at 50 k cells/well. Aptamers in SB1+ (40 mM HEPES, pH 7.5, 125 mM NaCl, 5 mM KCl, 1 mM MgCl₂) were heated to 90° C. for 3 minutes and allowed to cool to room temperature for a minimum of 10 minutes. […] 15 μL of VEGF-A was added to 15 μL titrated aptamer in a polypropylene plate and diluted to 300 μL with TS buffer (10 mM Tris pH 7.5; 100 mM NaCl; 5.7 mM KCl; 1 mM MgCl₂; 1 mM CaCl₂). The aptamer/VEGF-A mixture was incubated at 37° C. for 30 minutes, after which 100 μL was added to the cells for 5 minutes at 37° C. in 5% CO₂. Treatments were aspirated from cells, and cells were lysed with 100 μL cold lysis buffer [20 mM Tris-HCl, pH 7.5, 150 mM NaCl, 1 mM EDTA, 1% Triton X-100, 0.5 mM sodium orthovanadate (freshly prepared), 1 mM PMSF (freshly prepared), lx protease inhibitor cocktail (freshly prepared)] on ice for 10 minutes. […]
To perform the AlphaLISA® assay, 10 μL of cell lysis was transferred to a white low volume 384 well Optiplate (Perkin Elmer). […] The assay plate was sealed and incubated in the dark for approximately 2 hours, then was read on a Biotek CYTATION™ 5 plate reader using the Alpha 384 well optical cube. Percent inhibition was calculated by subtracting TS buffer background from each value and normalizing to VEGF-A only controls. […]

VEGF-A121 [5] = target: T1, VEGF-A121; assay: SPR; no binding at highest concentration (500 nM); settings: tags: glycan-biotinylated for SPR/FRET/AlphaLISA; Acro BioSystems, Biolegend; chain copies: 2 (stated)
Experimental: as §2, §3

VEGF-A110 = VEGF-A110 (Homo sapiens, UniProt P15692 SEQ:1-110); assay: SPR; no binding at highest concentration (500 nM); settings: tags: glycan-biotinylated; chain copies: 2 (stated)
Experimental: as §2, §3

VEGF-A165 [6] = target: T2, VEGF-A165; assay: cell_activity; KDR phosphorylation; >50% at 100 nM with VEGF-A121; settings: tags: glycan-biotinylated for SPR/FRET/AlphaLISA; Acro BioSystems, R&D Systems; chain copies: 2 (inferred)
Experimental: (§4) Briefly, HEK293 cells engineered to stably overexpress KDR were plated overnight in collagen coated 96 well plates at 50 k cells/well. Aptamers in SB1+ (40 mM HEPES, pH 7.5, 125 mM NaCl, 5 mM KCl, 1 mM MgCl₂) were heated to 90° C. for 3 minutes and allowed to cool to room temperature for a minimum of 10 minutes. […] 15 μL of VEGF-A was added to 15 μL titrated aptamer in a polypropylene plate and diluted to 300 μL with TS buffer (10 mM Tris pH 7.5; 100 mM NaCl; 5.7 mM KCl; 1 mM MgCl₂; 1 mM CaCl₂). The aptamer/VEGF-A mixture was incubated at 37° C. for 30 minutes, after which 100 μL was added to the cells for 5 minutes at 37° C. in 5% CO₂. Treatments were aspirated from cells, and cells were lysed with 100 μL cold lysis buffer [20 mM Tris-HCl, pH 7.5, 150 mM NaCl, 1 mM EDTA, 1% Triton X-100, 0.5 mM sodium orthovanadate (freshly prepared), 1 mM PMSF (freshly prepared), lx protease inhibitor cocktail (freshly prepared)] on ice for 10 minutes. Plates were centrifuged at 4000×g for 10 minutes before transferring the cell lysis to the AlphaLISA® assay plate.
(§5) To perform the AlphaLISA® assay, 10 μL of cell lysis was transferred to a white low volume 384 well Optiplate (Perkin Elmer). […] 10 μL of this reagent mixture was added to the assay plate that contained 10 μL of cell lysate. The assay plate was sealed and incubated in the dark for approximately 2 hours, then was read on a Biotek CYTATION™ 5 plate reader using the Alpha 384 well optical cube. Percent inhibition was calculated by subtracting TS buffer background from each value and normalizing to VEGF-A only controls. The values were fit by using a four-parameter non-linear fit in GraphPad Prism Version 7.0.

VEGF-A121 [7] = target: T1, VEGF-A121; assay: cell_activity; KDR phosphorylation in HEK293-KDR; settings: tags: glycan biotinylated in TR-FRET; Biolegend in the cell assay; chain copies: 2
Experimental: as §4, §5

VEGF-A121 [8] = target: T1, VEGF-A121; assay: competition; TR-FRET; stem S2 mispaired; settings: tags: glycan-biotinylated for SPR/FRET/AlphaLISA; Acro BioSystems, Biolegend; chain copies: 2 (stated)
Experimental: as §1, with “IC₅₀. […]” for “IC₅₀.”

B1: Aptamer 276 (ssRNA)
RNA: ACCCGCGCGGAGGGGUUUCAUUAUCCCGUUUGU
modifications: G 2'-F except 2'-OMe-G as X in AC-Sp3-CCGCGCGGAGGGXUUUCAUUAUCCCGUUUGU; A,C,U 2'-OMe; Sp3 joins the two parts; 5' C6NH2; 3' idT
- binding signal (VEGF-A121 [1]): > 100 fold worse IC50 vs Aptamer 141

B2: Aptamer 184 (ssRNA)
RNA: AGGCCGCCUCCGCGCGGAGCCGUUUCAUUAUCCCGUUUGGCGGCUU
modifications: all G 2'-F; A,C,U 2'-OMe; 5' C6NH2; 3' idT
- binding signal (VEGF-A121 [2]): > 100 fold worse IC50 vs Aptamer 26

B3: Aptamer 185 (ssRNA)
RNA: AGGCCGCCUCCGCGCGGAGGGGUUUCAUUAUAACGUUUGGCGGCUU
modifications: all G 2'-F; A,C,U 2'-OMe; 5' C6NH2; 3' idT
- binding signal (VEGF-A121 [2]): > 100 fold worse IC50 vs Aptamer 26

B4: Aptamer 7 (ssRNA)
RNA: CGGAAUCAGUGAAUGCUUAUACAUCCG
modifications: 2'-F C and U; 2'-OMe G and A except AA at positions 4-5; 5' C6NH2; 3' idT
- Kd (VEGF-A165 [3]): 0.6 nM
- IC50 (VEGF-A165 [4]): 2.2 nM
- binding result (VEGF-A121 [5]): no binding
- binding result (VEGF-A110): no binding

B5: Aptamer 63 (ssRNA)
RNA: AGGCCGCCUCCGCGCGGAGGGGUUCAUUAUCCCGUUUGGCGGCUU
modifications: all G 2'-F; A,C,U 2'-OMe; Sp3 joins the two parts; 5' C6NH2; 3' idT
- binding result (VEGF-A121 [1]): binds

B6: Aptamer 66 (ssRNA)
RNA: AGGCCGCCUCCGCGCGGAGGGGUUUCAUAUCCCGUUUGGCGGCUU
modifications: all G 2'-F; A,C,U 2'-OMe; Sp3 joins the two parts; 5' C6NH2; 3' idT
- binding result (VEGF-A121 [1]): binds

B7: Aptamer 68 (ssRNA)
RNA: AGGCCGCCUCCGCGCGGAGGGGUUUCAUUUCCCGUUUGGCGGCUU
modifications: all G 2'-F; A,C,U 2'-OMe; Sp3 joins the two parts; 5' C6NH2; 3' idT
- binding signal (VEGF-A121 [1]): > 100 fold worse IC50 vs Aptamer 26

B8: Aptamer 65 (ssRNA)
RNA: AGGCCGCCUCCGCGCGGAGGGGUUUCUUAUCCCGUUUGGCGGCUU
modifications: all G 2'-F; A,C,U 2'-OMe; Sp3 joins the two parts; 5' C6NH2; 3' idT
- binding result (VEGF-A121 [1]): binds

B9: Aptamer 67 (ssRNA)
RNA: AGGCCGCCUCCGCGCGGAGGGGUUUCAUAUCCCGUUUGGCGGCUU
modifications: all G 2'-F; A,C,U 2'-OMe; Sp3 joins the two parts; 5' C6NH2; 3' idT
- binding result (VEGF-A121 [1]): binds

B10: Aptamer 285 (ssRNA)
RNA: CGACCCGCGCGGAGGGGUUUCAUAAUCCCGUUUGUCG
modifications: G 2'-F except 2'-OMe-G as X in CXAC-Sp3-CCGCGCGGAGGGXUUUCAUAAUCCCGUUUXUCX; A,C,U 2'-OMe; Sp3 joins the two parts; 5' C6NH2; 3' idT
- binding signal (VEGF-A121 [1]): ~10 fold better IC50 vs Aptamer 141

B11: Aptamer 30 (ssRNA)
RNA: UAGGCCGCCUCCGCGCGGAGGGGUUUCAUUUAUCCCGUUUGGCGGCUUU
modifications: all G 2'-F; A,C,U 2'-OMe; 5' C6NH2; 3' idT
- activity (VEGF-A165 [6]): > 50 % inhibition at 10 nM

B12: Aptamer 30 (ssRNA)
RNA: UAGGCCGCCUCCGCGCGGAGGGGUUUCAUUUAUCCCGUUUGGCGGCUUU
modifications: 2'-F G; 2'-OMe A,C,U; 5' C6NH2; 3' idT
- activity (VEGF-A121 [7]): > 50 % inhibition at 100 nM

B13: Aptamer 182 (ssRNA)
RNA: AGGCCGCCUUUGCGCUUAGGGGUUUCAUUAUCCCGUUUGGCGGCUU
modifications: all G 2'-F; A,C,U 2'-OMe; 5' C6NH2; 3' idT
- binding signal (VEGF-A121 [8]): > 100 fold worse IC50 vs Aptamer 26
